# Laboratory results from patent US20200121803A1 (published 2020).
# Positions count from the first letter of the chain named.
# T1: Human CD98, endogenous on HCC38, Molt-4 and Jurkat human cancer cells (human)
# T1 chain: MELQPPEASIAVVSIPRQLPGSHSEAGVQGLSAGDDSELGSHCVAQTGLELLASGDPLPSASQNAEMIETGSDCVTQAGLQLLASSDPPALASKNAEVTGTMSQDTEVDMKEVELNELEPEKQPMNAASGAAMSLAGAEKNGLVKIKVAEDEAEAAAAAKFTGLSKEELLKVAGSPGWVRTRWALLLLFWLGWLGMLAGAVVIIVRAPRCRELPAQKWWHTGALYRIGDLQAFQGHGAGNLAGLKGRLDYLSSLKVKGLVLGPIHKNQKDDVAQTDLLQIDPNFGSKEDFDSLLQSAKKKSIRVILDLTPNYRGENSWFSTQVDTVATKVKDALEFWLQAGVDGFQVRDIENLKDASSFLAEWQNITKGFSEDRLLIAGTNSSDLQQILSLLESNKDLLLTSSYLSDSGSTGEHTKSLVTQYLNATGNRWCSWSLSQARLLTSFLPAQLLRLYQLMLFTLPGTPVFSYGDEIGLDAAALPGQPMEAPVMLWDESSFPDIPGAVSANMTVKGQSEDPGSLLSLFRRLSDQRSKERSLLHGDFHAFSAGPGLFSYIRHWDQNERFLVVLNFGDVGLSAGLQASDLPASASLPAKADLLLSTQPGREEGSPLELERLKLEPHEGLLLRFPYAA
# T2: human CD98, endogenously expressed on Molt-4 human acute lymphoblastic leukemia cells (human)
# T2 chain: T1 chain
# B1: Ab3-CZ (Ab3 conjugated to Bcl-xL inhibitor synthon CZ) (antibody, V domains shown)
# VH: EVKLVESGGGLVQPGNSLRLSCATSGFTFIDYYMSWVRQSPGKALEWLGFIRNKANGYTTEYSASVKGRFTISRDNSQSILYLQMDTLRAEDSATYYCTRDRPAWFVYWGQGTLVTVSA
# VL: DIVMSQSPSSLAVSVGEKVTMSCKSSQSLLYSSNQKNYLAWYQQKPGQSPKLLIYWASTRESGVPDRFTGSGSGTDFTLTFSSVRAEDLAVYYCQQYYSYPYTFGGGTKLEIK
# B2: Ab13-CZ (Ab13 conjugated to Bcl-xL inhibitor synthon CZ) (antibody, V domains shown)
# VH: QVQLKESGPGLVQPSQTLSLTCTVSGFSLSSYGVIWVRQPPGKGLEWMGIIWANGNTNYNSALKSRLSISRDTSKSQVYLKMNSLQTEDTATYYCARHYYDGTHYYGYFDYWGQGVMVTVSS
# VL: DTVMTQTPSSQAVSAGEKVTMSCKSSQSLLYSENKKKYLAWYQQKPGQSPKLLIYWASTRESGVPDRFIGSGSGTDFTLTISSVQAEDLAVYYCQQYYNFPYTFGAGTKLELK
# B3: Ab14-CZ (Ab14 conjugated to Bcl-xL inhibitor synthon CZ) (antibody, V domains shown)
# VH: EVKLQQSGDELVRPGASVKISCKASGYTFTSYSMHWVKERPGQGLEWIGAIFPIIGTTEYNQKFKGKATLTADKSSNTANMELSRLTSEDSAVYYCARVYLSYFDYWGQGVMVTVSS
# VL: DIQMTQSPSFLSASVGDRVTINCKASQNINKYLDWYQRKHGEAPKLLIYNTNNLQTGIPSRFSGSGSGTDYTLTISSLQPEDVATYFCLQHSSRYTFGAGTKLELK
# B4: Ab2-CZ (Ab2 conjugated to Bcl-xL inhibitor synthon CZ) (antibody, V domains shown)
# VH: EVKLVESGGGLVQPGGSLRLSCATSGFNFTDYYMSWVRQPPGKALEWLGFIRNKANGYTTEYSASVKGRFTISRDDSQSILYLQMNTLRAEDSATYYCARASYGNSEGWFAYWGQGTLVTVSA
# VL: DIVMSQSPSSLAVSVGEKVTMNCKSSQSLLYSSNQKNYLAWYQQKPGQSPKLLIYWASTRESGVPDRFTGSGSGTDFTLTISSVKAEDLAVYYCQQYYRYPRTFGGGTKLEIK
# B5: Ab12-CZ (Ab12 conjugated to Bcl-xL inhibitor synthon CZ) (antibody, V domains shown)
# VH: EVQLVESGGGLVQPGRSLKLSCAASGFTFSDYAMAWVRQAPKKGLEWVASIIYDGRGTYYRDSVKGRFTISRDNAKSTLYLQMDSLRSEDTATYYCARQGDGTYYYWGSFDYWGQGVMVTVSS
# VL: DIVMTQSPSSLAVSAGETVTINCKSSQSLLSSGNQKNYLAWYQQKPGQSPKLLIYWASTRQSGVPDRFIGSGSGTDFTLTISSVQAEDLAIYHCQQYYDTPYTFGAGTKLELK
# B6: Ab15-CZ (Ab15 conjugated to Bcl-xL inhibitor synthon CZ) (antibody, V domains shown)
# VH: B5 VH with A33T, S50T, G100S, S109Y
# VL: B5 VL with S31F, S82R, H93Y, T100S
# B7: CD98 (CL-huAb110)-ZZ (antibody, human IgG1, kappa, L234A L235A, V domains shown)
# VH: EVQLVQSGAEVKKPGASVKVSCKASGFTFSDYTMAWVRQAPGQGLEWVATIIYDARGTYYRDAVKGRFTITRDNSTSTLYLELSSLRSEDTAVYYCARQSDDTYYYWGYFDYWGQGTMVTVSS
# VL: DIVMTQTPLSLPVTPGEPASINCKSSQSLLFSGNQKNYLAWYLQKPGQSPQLLIYWASTRQSGVPDRFSGSGSGTDFTLKISRVEAEDVGIYYCQQYYSSPYTFGQGTKLEIKR
# modifications: synthon ZZ on reduced cysteine (see heavy chain); Bcl-xL inhibitor synthon ZZ on cysteines freed by TCEP reduction (Method G); DAR 1.0 by MS for the whole ADC
# B8: CD98 (CL-huAb104)-SE (antibody, human IgG1, kappa, L234A L235A, V domains shown)
# VH: EVQLVESGGGLVQPGGSLRLSCATSGFTFIDYYMSWVRQAPGKGLEWLGFIRNKAYGYTTEYSASVKGRFTISRDNSKSILYLQMNSLKTEDTAVYYCTRDRPAWFVYWGQGTLVTVSS
# VL: B7 VL with N22S, F31Y, G33S, Q61E, I91V, S100Y, Q106G, L110V
# modifications: synthon SE on reduced cysteine (see heavy chain); Bcl-xL inhibitor synthon SE on cysteines freed by TCEP reduction (Method A); DAR 2.4 by MS for the whole ADC
# B9: CD98 (CL-huAb104)-SR (antibody, human IgG1, kappa, L234A L235A, V domains shown)
# VH: B8 VH
# VL: B7 VL with N22S, F31Y, G33S, Q61E, I91V, S100Y, Q106G, L110V
# modifications: synthon SR on reduced cysteine (see heavy chain); Bcl-xL inhibitor synthon SR on cysteines freed by TCEP reduction (Method A); DAR 2.2 by MS for the whole ADC
# B10: CD98 (CL-huAb104)-XW (antibody, human IgG1, kappa, L234A L235A, V domains shown)
# VH: B8 VH
# VL: B7 VL with N22S, F31Y, G33S, Q61E, I91V, S100Y, Q106G, L110V
# modifications: synthon XW on reduced cysteine (see heavy chain); Bcl-xL inhibitor synthon XW on cysteines freed by TCEP reduction (Method G); DAR 3.1 by MS for the whole ADC
# B11: CD98 (CL-huAb102)-SR (antibody, human IgG1, kappa, L234A L235A, V domains shown)
# VH: B8 VH with Y56N, G57R
# VL: B7 VL with N22S, F31Y, G33S, Q61E, I91V, S100Y, Q106G, L110V
# modifications: synthon SR on reduced cysteine (see heavy chain); Bcl-xL inhibitor synthon SR on cysteines freed by TCEP reduction (Method A); DAR 2.1 by MS for the whole ADC
# B12: CD98 (CL-huAb110)-XW (antibody, human IgG1, kappa, L234A L235A, V domains shown)
# VH: B7 VH
# VL: B7 VL
# modifications: synthon XW on reduced cysteine (see heavy chain); Bcl-xL inhibitor synthon XW on cysteines freed by TCEP reduction (Method G); DAR 3.2 by MS for the whole ADC
# B13: CD98 (CL-huAb110)-SR (antibody, human IgG1, kappa, L234A L235A, V domains shown)
# VH: B7 VH
# VL: B7 VL
# modifications: synthon SR on reduced cysteine (see heavy chain); Bcl-xL inhibitor synthon SR on cysteines freed by TCEP reduction (Method A); DAR printed as '.0.7' by MS for the whole ADC
# B14: CD98 (CL-huAb102)-XW (antibody, human IgG1, kappa, L234A L235A, V domains shown)
# VH: B8 VH with Y56N, G57R
# VL: B7 VL with N22S, F31Y, G33S, Q61E, I91V, S100Y, Q106G, L110V
# modifications: synthon XW on reduced cysteine (see heavy chain); Bcl-xL inhibitor synthon XW on cysteines freed by TCEP reduction (Method G); DAR 2.8 by MS for the whole ADC
# B15: CD98 (CL-huAb110)-SE (antibody, human IgG1, kappa, L234A L235A, V domains shown)
# VH: B7 VH
# VL: B7 VL
# modifications: synthon SE on reduced cysteine (see heavy chain); Bcl-xL inhibitor synthon SE on cysteines freed by TCEP reduction (Method A); DAR 1.9 by MS for the whole ADC
# B16: CD98 (CL-huAb102)-SE (antibody, human IgG1, kappa, L234A L235A, V domains shown)
# VH: B8 VH with Y56N, G57R
# VL: B7 VL with N22S, F31Y, G33S, Q61E, I91V, S100Y, Q106G, L110V
# modifications: synthon SE on reduced cysteine (see heavy chain); Bcl-xL inhibitor synthon SE on cysteines freed by TCEP reduction (Method A); DAR 2.2 by MS for the whole ADC
# B17: CD98 (CL-huAb108)-XW (antibody, human IgG1, kappa, L234A L235A, V domains shown)
# VH: B7 VH with D54S, A55G
# VL: B7 VL with S99D, S100V
# modifications: synthon XW on reduced cysteine (see heavy chain); Bcl-xL inhibitor synthon XW on cysteines freed by TCEP reduction (Method G); DAR 3.5 by MS for the whole ADC
# Biological target: T1, Human CD98, endogenous on HCC38, Molt-4 …
# Test: cell-based or functional assay
"ADC potency, IC50 (nM), HCC38 growth inhibition","ADC potency, IC50 (nM), Jurkat growth inhibition","ADC potency, IC50 (nM), Molt-4 growth inhibition",Binder
0.561 nM,0.071 nM,0.031 nM,B1
0.787 nM,0.149 nM,0.38 nM,B2
0.798 nM,0.063 nM,0.025 nM,B3
0.791 nM,0.065 nM,0.05 nM,B4
0.685 nM,0.094 nM,0.087 nM,B5
1.06 nM,0.076 nM,0.071 nM,B6

# Biological target: T2, human CD98, endogenously expressed on …
# Test: cell-based or functional assay
"Molt4 IC50 (nM), 50% inhibition of cell proliferation, 72 h, ATPlite",Binder,% Cell Viability at 50 nM (Molt-4)
0.252 nM,B7,4.3%
0.149 nM,B8,17.1%
0.045 nM,B9,2.7%
0.102 nM,B10,31.1%
0.03 nM,B11,12.7%
0.308 nM,B12,19.6%
0.332 nM,B13,11%
0.074 nM,B14,32%
0.502 nM,B15,5.7%
0.107 nM,B16,19.7%
0.281 nM,B17,20.9%
